Results on one molecule are retold here after publication PMC8885668, “A high-performance electrochemical aptasensor based on graphene-decorated rhodium nanoparticles to detect HER2-ECD oncomarker in liquid biopsy”.

In the data set the target is HER2-ECD (recombinant human HER2/ErbB2/CD340) (human, UniProt P04626 23-652). The data set is described as follows: electrochemical aptasensor (DPV); Rh-NPs/rGONs graphite electrode; linear 10-500 ng/mL; LOD 0.665 ng/mL (0.667 in abstract), not a Kd; DPV in 0.1 M PBS pH 7.4, 5.0 mM K4[Fe(CN)6]/K3[Fe(CN)6] (1:1), 0.1 M KCl; 50 nM aptamer immobilized; 40 min protein incubation; BSA-blocked; binding temperature not stated. Particulars: protein: commercial; predicted double stem-loop; text also claims G-quadruplex.

B1: anti-HER2 aptamer (ssDNA)
DNA: GGGCCGTCGAACACGAGCATGGTGCGTGGACCTAGGATGACCTGAGTACTGTCC
modifications: 5' NH2-(CH2)6, amide-coupled to MPA on electrode
Take B1: the binding result is “binds”.
